Experimental data as given in patent US6884870.

What was measured:
[1] = molecular target: caspase 7 lacking the N-terminal 53 amino acid prodomain (caspase 7^53) (human) (UniProt P55210); test: cell-based or functional assay
[2] = molecular target: C. elegans caspase CED-3 (C. elegans) (UniProt P42573); test: cell-based or functional assay
Chain of UniProt P42573 (P42573 whole entry): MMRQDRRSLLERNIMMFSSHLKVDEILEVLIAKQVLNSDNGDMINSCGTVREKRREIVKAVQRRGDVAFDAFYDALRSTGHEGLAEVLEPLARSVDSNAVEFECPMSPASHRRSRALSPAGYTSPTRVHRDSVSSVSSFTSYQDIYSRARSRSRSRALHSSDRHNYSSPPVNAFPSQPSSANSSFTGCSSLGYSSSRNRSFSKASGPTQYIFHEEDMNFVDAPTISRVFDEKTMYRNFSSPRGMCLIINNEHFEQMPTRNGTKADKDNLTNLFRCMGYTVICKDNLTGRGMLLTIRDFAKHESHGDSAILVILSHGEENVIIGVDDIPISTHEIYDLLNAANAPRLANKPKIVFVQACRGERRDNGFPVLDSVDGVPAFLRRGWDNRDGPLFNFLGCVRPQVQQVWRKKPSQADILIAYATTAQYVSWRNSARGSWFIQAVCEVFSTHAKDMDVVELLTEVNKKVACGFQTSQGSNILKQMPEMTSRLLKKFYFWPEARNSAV

Chain of UniProt P55210 (P55210 54-303 limits assumed): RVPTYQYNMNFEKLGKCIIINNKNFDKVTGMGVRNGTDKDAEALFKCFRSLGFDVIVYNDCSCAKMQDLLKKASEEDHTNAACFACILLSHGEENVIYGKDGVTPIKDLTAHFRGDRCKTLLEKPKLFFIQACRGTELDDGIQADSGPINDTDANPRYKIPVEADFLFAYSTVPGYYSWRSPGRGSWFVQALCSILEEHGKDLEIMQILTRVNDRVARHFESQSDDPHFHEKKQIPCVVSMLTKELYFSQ

Row | Substance | beta-gal activity (ONPG assay) of the caspase-dependent CLBDG6 LexA/lacZ reporter in yeast (fold inhibition) [1] | beta-gal activity (ONPG assay) of the caspase-dependent CLBDG6 LexA/lacZ reporter in yeast (fold inhibition) [2]
1 | baculovirus p35 (from UniProt P08160 1-299) | 5 | 5
2 | mouse IAP MIHA (from UniProt Q60989 1-496) | 2 | 
